Test results published in PMC10716131, “Structural and biophysical comparisons of the pomalidomide- and CC-220-induced interactions of SALL4 with cereblon” (Scientific Reports, 2023).

Biological target: T1, DDB1:CRBN complex, full-length human CRBN (residues 1–442) with N-terminal biotinylated Avi-tag, co-expressed … (human, UniProt Q96SW2 1-442; Q16531 1-1140, biotin on the Avi-tag (BirA, 100% efficiency))
T1 construct: cereblon (CRBN), human, full-length, residues 1–442; DDB1, human, residues 1–1140; A 6xGS linker stands between the non-cleavable Avi-tag and CRBN; The host is named (Sf21) only for the crystallisation construct; also called DDB1:N-avi-biotin-CRBN; DDB1:N-avi-CRBN; source: biotinylated with BirA; not shown: Avi-tag, N-terminal, kept
T1 sequence (Q96SW2 whole entry, chain 1 of 2, the tested form may be a part): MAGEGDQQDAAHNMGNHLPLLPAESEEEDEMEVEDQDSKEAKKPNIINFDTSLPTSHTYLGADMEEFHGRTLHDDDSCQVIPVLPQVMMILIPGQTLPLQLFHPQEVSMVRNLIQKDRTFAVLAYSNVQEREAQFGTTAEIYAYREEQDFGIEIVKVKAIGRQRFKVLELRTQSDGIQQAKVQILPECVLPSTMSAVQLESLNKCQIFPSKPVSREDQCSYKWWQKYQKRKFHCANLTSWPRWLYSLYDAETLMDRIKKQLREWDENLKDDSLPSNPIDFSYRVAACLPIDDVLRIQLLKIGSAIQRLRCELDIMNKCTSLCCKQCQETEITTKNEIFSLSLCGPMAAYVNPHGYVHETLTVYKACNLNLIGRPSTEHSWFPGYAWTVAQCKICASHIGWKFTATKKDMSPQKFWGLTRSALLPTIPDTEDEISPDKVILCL
T1 sequence (Q16531 whole entry, chain 2 of 2, the tested form may be a part): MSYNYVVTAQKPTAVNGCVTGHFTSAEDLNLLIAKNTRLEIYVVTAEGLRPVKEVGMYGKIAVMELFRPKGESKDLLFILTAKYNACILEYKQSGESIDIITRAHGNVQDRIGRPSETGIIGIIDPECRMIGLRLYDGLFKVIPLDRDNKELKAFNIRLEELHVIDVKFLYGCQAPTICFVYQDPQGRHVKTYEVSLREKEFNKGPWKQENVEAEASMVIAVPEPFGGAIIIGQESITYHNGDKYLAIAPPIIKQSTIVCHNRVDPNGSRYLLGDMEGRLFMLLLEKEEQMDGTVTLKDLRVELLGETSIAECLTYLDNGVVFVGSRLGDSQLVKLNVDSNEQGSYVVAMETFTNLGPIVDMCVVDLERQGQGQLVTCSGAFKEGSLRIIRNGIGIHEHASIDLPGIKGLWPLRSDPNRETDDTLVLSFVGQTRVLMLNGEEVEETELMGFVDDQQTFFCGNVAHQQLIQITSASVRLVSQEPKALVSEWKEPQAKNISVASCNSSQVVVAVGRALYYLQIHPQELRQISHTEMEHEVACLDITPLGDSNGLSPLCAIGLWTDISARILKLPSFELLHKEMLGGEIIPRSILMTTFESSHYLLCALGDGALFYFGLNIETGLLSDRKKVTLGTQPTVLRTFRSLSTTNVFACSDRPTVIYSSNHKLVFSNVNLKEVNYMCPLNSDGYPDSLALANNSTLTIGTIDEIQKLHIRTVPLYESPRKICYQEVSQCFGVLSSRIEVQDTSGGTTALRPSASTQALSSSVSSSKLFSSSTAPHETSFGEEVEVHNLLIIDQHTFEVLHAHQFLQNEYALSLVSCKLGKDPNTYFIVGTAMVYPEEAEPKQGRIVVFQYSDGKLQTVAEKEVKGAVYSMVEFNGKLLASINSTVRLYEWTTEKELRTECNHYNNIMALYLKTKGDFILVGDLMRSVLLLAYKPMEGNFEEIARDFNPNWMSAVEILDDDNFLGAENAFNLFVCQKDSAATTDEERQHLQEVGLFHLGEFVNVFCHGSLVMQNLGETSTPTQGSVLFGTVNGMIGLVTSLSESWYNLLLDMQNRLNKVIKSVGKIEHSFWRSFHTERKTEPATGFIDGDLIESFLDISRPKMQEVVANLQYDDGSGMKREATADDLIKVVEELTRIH
Experiment: SPR; DDB1:N-avi-biotin-CRBN immobilised on a streptavidin sensor (~5000–7000 RU), Biacore 8k, ABA method; SALL4 zinc fingers in 2X dilution series with 5 μM pomalidomide throughout; PBS pH 7.2, 5% glycerol, total NaCl ~300 mM, 0.01% P20, 1 mM TCEP, 0.05% DMSO; 15 °C; 30 µL/minute; 1:1 kinetic modelling
Details: both partners purified

B1: Human SALL4 ZF1(370–409) (domain or fragment, UniProt Q9UJQ4 370-409, looked up)
chain: DVKPKDEAALYKHKCKYCSKVFGTDSSLQIHLRSHTGERP
notes: not shown: Twin-Strep-ZZ, N-terminal, cleaved
KD with pomalidomide: > 50 µM
